B1: Ly2444 (bispecific antibody, human IgG1, kappa)
chain 1: QVQLVQSGAEVKKPGASVKVSCKASGYTFTDFWMSWVRQAPGQGLEWMGQIYPNTGTTHSNEKFKGRVTMTRDTSTSTVYMELSSLRSEDTAVYYCARSYHISTTPNWFAYWGQGTLVTVSSASTKGPSVFPLAPSSKSTSGGTAALGCLVKDYFPEPVTVSWNSGALTSGVHTFPAVLQSSGLYSLSSVVTVPSSSLGTQTYICNVNHKPSNTKVDKKVEPKSCDKTHTCPPCPAPEAAGPSVFLFPPKPKDTLMISRTPEVTCVVVDVSHEDPEVKFNWYVDGVEVHNAKTKPREEQYNSTYRVVSVLTVLHQDWLNGKEYKCKVSNKALPAPIEKTISKAKGQPREPQVYTLPPSREEMTKNQVSLWCLVKGFYPSDIAVEWESNGQPENNYKTTPPVLDSDGSFFLYSKLTVDKSRWQQGNVFSCSVMHEALHNHYTQKSLSLSPGGGGGSGGGGSGGGGSGGGGSEVQLVESGGGLVQPGGSLRLSCAASGFTFTNYGLHWVRQAPGKGLEWVSSISPSGGVTYYRDSVKGRFTISRDNSKNTLYLQMNSLRAEDTAVYYCAKPFLGWGGANWIAHWGQGTLVTVSS
chain 2: QVQLVQSGAEVKKPGASVKVSCKASGYTFTDFWMSWVRQAPGQGLEWMGQIYPNTGTTHSNEKFKGRVTMTRDTSTSTVYMELSSLRSEDTAVYYCARSYHISTTPNWFAYWGQGTLVTVSSASTKGPSVFPLAPSSKSTSGGTAALGCLVKDYFPEPVTVSWNSGALTSGVHTFPAVLQSSGLYSLSSVVTVPSSSLGTQTYICNVNHKPSNTKVDKKVEPKSCDKTHTCPPCPAPEAAGPSVFLFPPKPKDTLMISRTPEVTCVVVDVSHEDPEVKFNWYVDGVEVHNAKTKPREEQYNSTYRVVSVLTVLHQDWLNGKEYKCKVSNKALPAPIEKTISKAKGQPREPQVYTLPPSREEMTKNQVSLSCAVKGFYPSDIAVEWESNGQPENNYKTTPPVLDSDGSFFLVSKLTVDKSRWQQGNVFSCSVMHEALHNRFTQKSLSLSPGGGGGSGGGGSGGGGSGGGGSDIQMTQSPSSLSASVGDRVTITCLASEDISNDLAWYQQKPGKAPKLLIYFVDRLLDGVPSRFSGSGSGTDFTLTISSLQPEDFATYYCQQSYKYPPTFGQGTKLEIK
light: DIQMTQSPSSLSASVGDRVTITCKASQNVYKKLEWYQQKPGKVPKVLIYHTNILQTGVPSRFSGSGSGTDYTLTISSLQPEDVATYYCYQWNSGPTFGGGTKVEIKRTVAAPSVFIFPPSDEQLKSGTASVVCLLNNFYPREAKVQWKVDNALQSGNSQESVTEQDSKDSTYSLSSTLTLSKADYEKHKVYACEVTHQGLSSPVTKSFNRGEC
notes: PD-L1/CD40: two PD-L1 Fabs (Ly076), terminal CD40 Fv (TM559)
B2: Ly1963 (other)
chain 1: QVQLVQSGAEVKKPGASVKVSCKASGYTFTSYVMHWVRQKPGQGLEWIGYINPYNEGTESTDKFKGRATMTSDKSTSTVYMELSSLRSEDTAVYYCASIYYGYEGTYFGVWGQGTLVTVSSASTKGPSVFPLAPSSKSTSGGTAALGCLVKDYFPEPVTVSWNSGALTSGVHTFPAVLQSSGLYSLSSVVTVPSSSLGTQTYICNVNHKPSNTKVDKKVEPKSCGGGGSGGGGSGGGGSGGGGSEVQLVESGGGLVQPGGSLRLSCAASGFTFSTYAMNWVRQAPGKGLEWVGRIRSKYNNYATYYADSVKGRFTISRDDSKNSLYLQMNSLKTEDTAVYYCVRHGNFGNSYVSWFAYWGQGTLVTVSSGGGGSDKTHTCPPCPAPEAAGPSVFLFPPKPKDTLMISRTPEVTCVVVDVSHEDPEVKFNWYVDGVEVHNAKTKPREEQYNSTYRVVSVLTVLHQDWLNGKEYKCKVSNKALPAPIEKTISKAKGQPREPQVYTLPPSREEMTKNQVSLWCLVKGFYPSDIAVEWESNGQPENNYKTTPPVLDSDGSFFLYSKLTVDKSRWQQGNVFSCSVMHEALHNHYTQKSLSLSPGGGGGSGGGGSGGGGSGGGGSQVQLVQSGAEVKKPGASVKVSCKASGYTFAGFEMHWVRQAPGQGLEWMGAIDPKTGGTDYNQKFKDRVTMTRDTSISTAYMELSRLRSDDTAVYYCARDLGYFDVWGQGTLVTVSS
chain 2: QVQLVQSGAEVKKPGASVKVSCKASGYTFTSYVMHWVRQKPGQGLEWIGYINPYNEGTESTDKFKGRATMTSDKSTSTVYMELSSLRSEDTAVYYCASIYYGYEGTYFGVWGQGTLVTVSSASTKGPSVFPLAPSSKSTSGGTAALGCLVKDYFPEPVTVSWNSGALTSGVHTFPAVLQSSGLYSLSSVVTVPSSSLGTQTYICNVNHKPSNTKVDKKVEPKSCGGGGSGGGGSGGGGSGGGGSQAVVTQEPSLTVSPGGTVTLTCRSSTGAVTTSNYANWVQQKPGQAPRGLIGGTNKRAPWTPARFSGSLLGGKAALTITGAQAEDEADYYCALWYSNLWVFGGGTKLTVLGGGGSDKTHTCPPCPAPEAAGPSVFLFPPKPKDTLMISRTPEVTCVVVDVSHEDPEVKFNWYVDGVEVHNAKTKPREEQYNSTYRVVSVLTVLHQDWLNGKEYKCKVSNKALPAPIEKTISKAKGQPREPQVYTLPPSREEMTKNQVSLSCAVKGFYPSDIAVEWESNGQPENNYKTTPPVLDSDGSFFLVSKLTVDKSRWQQGNVFSCSVMHEALHNHYTQKSLSLSPGGGGGSGGGGSGGGGSGGGGSDIQMTQSPSSLSASVGDRVTITCRASQDIRSNLNWYQQKPGGAVKLLIYYTSRLHSGVPSRFSGSGSGTDYTLTISSLQPEDFATYFCQQSEKLPRTFGGGTKVEIR
light: EIVLTQSPATLSLSPGERATLSCRASSSVSYMHWYQQKPGQAPRPWIYATSNLASGIPARFSGSRSGTDYTLTISSLEPEDFAVYYCQQWSSNTLTFGGGTKVEIKRTVAAPSVFIFPPSDEQLKSGTASVVCLLNNFYPREAKVQWKVDNALQSGNSQESVTEQDSKDSTYSLSSTLTLSKADYEKHKVYACEVTHQGLSSPVTKSFNRGEC
notes: Tri-specific antibody B7H3 (two Fabs) / CD3 (central Fv) / CD137 (terminal Fv)
B3: Ly2122 (bispecific antibody, human IgG1, kappa)
chain 1: QVQLVQSGAEVKKPGASVKVSCKASGYTFTSYVMHWVRQKPGQGLEWIGYINPYNEGTESTDKFKGRATMTSDKSTSTVYMELSSLRSEDTAVYYCASIYYGYEGTYFGVWGQGTLVTVSSASTKGPSVFPLAPSSKSTSGGTAALGCLVKDYFPEPVTVSWNSGALTSGVHTFPAVLQSSGLYSLSSVVTVPSSSLGTQTYICNVNHKPSNTKVDKKVEPKSCDKTHTCPPCPAPEAAGPSVFLFPPKPKDTLMISRTPEVTCVVVDVSHEDPEVKFNWYVDGVEVHNAKTKPREEQYNSTYRVVSVLTVLHQDWLNGKEYKCKVSNKALPAPIEKTISKAKGQPREPQVYTLPPSREEMTKNQVSLWCLVKGFYPSDIAVEWESNGQPENNYKTTPPVLDSDGSFFLYSKLTVDKSRWQQGNVFSCSVMHEALHNHYTQKSLSLSPGGGGGSGGGGSGGGGSGGGGSQVQLVQSGAEVKKPGASVKVSCKASGYTFAGFEMHWVRQAPGQGLEWMGAIDPKTGGTDYNQKFKDRVTMTRDTSISTAYMELSRLRSDDTAVYYCARDLGYFDVWGQGTLVTVSS
chain 2: QVQLVQSGAEVKKPGASVKVSCKASGYTFTSYVMHWVRQKPGQGLEWIGYINPYNEGTESTDKFKGRATMTSDKSTSTVYMELSSLRSEDTAVYYCASIYYGYEGTYFGVWGQGTLVTVSSASTKGPSVFPLAPSSKSTSGGTAALGCLVKDYFPEPVTVSWNSGALTSGVHTFPAVLQSSGLYSLSSVVTVPSSSLGTQTYICNVNHKPSNTKVDKKVEPKSCDKTHTCPPCPAPEAAGPSVFLFPPKPKDTLMISRTPEVTCVVVDVSHEDPEVKFNWYVDGVEVHNAKTKPREEQYNSTYRVVSVLTVLHQDWLNGKEYKCKVSNKALPAPIEKTISKAKGQPREPQVYTLPPSREEMTKNQVSLSCAVKGFYPSDIAVEWESNGQPENNYKTTPPVLDSDGSFFLVSKLTVDKSRWQQGNVFSCSVMHEALHNRFTQKSLSLSPGGGGGSGGGGSGGGGSGGGGSDIQMTQSPSSLSASVGDRVTITCRASQDIRSNLNWYQQKPGGAVKLLIYYTSRLHSGVPSRFSGSGSGTDYTLTISSLQPEDFATYFCQQSEKLPRTFGGGTKVEIR
light: B2 light
notes: Bispecific B7H3 (two Fabs) / CD137 (terminal Fv)
B4: Ly2438 (bispecific antibody)
heavy 1: QVQLVQSGAEVKKPGASVKVSCKASGYTFTDFWMSWVRQAPGQGLEWMGQIYPNTGTTHSNEKFKGRVTMTRDTSTSTVYMELSSLRSEDTAVYYCARSYHISTTPNWFAYWGQGTLVTVSSASTKGPSVFPLAPSSKSTSGGTAALGCLVKDYFPEPVTVSWNSGALTSGVHTFPAVLQSSGLYSLSSVVTVPSSSLGTQTYICNVNHKPSNTKVDKKVEPKSCGGGGSGGGGSGGGGSGGGGSEVQLVESGGGLVQPGGSLRLSCAASGFTFTNYGLHWVRQAPGKGLEWVSSISPSGGVTYYRDSVKGRFTISRDNSKNTLYLQMNSLRAEDTAVYYCAKPFLGWGGANWIAHWGQGTLVTVSSGGGGSDKTHTCPPCPAPEAAGPSVFLFPPKPKDTLMISRTPEVTCVVVDVSHEDPEVKFNWYVDGVEVHNAKTKPREEQYNSTYRVVSVLTVLHQDWLNGKEYKCKVSNKALPAPIEKTISKAKGQPREPQVYTLPPSREEMTKNQVSLWCLVKGFYPSDIAVEWESNGQPENNYKTTPPVLDSDGSFFLYSKLTVDKSRWQQGNVFSCSVMHEALHNHYTQKSLSLSPG
heavy 2: QVQLVQSGAEVKKPGASVKVSCKASGYTFTDFWMSWVRQAPGQGLEWMGQIYPNTGTTHSNEKFKGRVTMTRDTSTSTVYMELSSLRSEDTAVYYCARSYHISTTPNWFAYWGQGTLVTVSSASTKGPSVFPLAPSSKSTSGGTAALGCLVKDYFPEPVTVSWNSGALTSGVHTFPAVLQSSGLYSLSSVVTVPSSSLGTQTYICNVNHKPSNTKVDKKVEPKSCGGGGSGGGGSGGGGSGGGGSDIQMTQSPSSLSASVGDRVTITCLASEDISNDLAWYQQKPGKAPKLLIYFVDRLLDGVPSRFSGSGSGTDFTLTISSLQPEDFATYYCQQSYKYPPTFGQGTKLEIKGGGGSDKTHTCPPCPAPEAAGPSVFLFPPKPKDTLMISRTPEVTCVVVDVSHEDPEVKFNWYVDGVEVHNAKTKPREEQYNSTYRVVSVLTVLHQDWLNGKEYKCKVSNKALPAPIEKTISKAKGQPREPQVYTLPPSREEMTKNQVSLSCAVKGFYPSDIAVEWESNGQPENNYKTTPPVLDSDGSFFLVSKLTVDKSRWQQGNVFSCSVMHEALHNRFTQKSLSLSPG
light: B1 light
notes: PD-L1 Fabs (Ly076) x central CD40 Fv (TM559)

Tests used:
PD-L1 = target: T1, PD-L1 (human, UniProt Q9NZQ7 19-238, limits assumed); assay: FCM or ELISA
T1 construct: The reporter assay used Raji cells expressing human PD-L1
T1 sequence (Q9NZQ7 19-238 limits assumed): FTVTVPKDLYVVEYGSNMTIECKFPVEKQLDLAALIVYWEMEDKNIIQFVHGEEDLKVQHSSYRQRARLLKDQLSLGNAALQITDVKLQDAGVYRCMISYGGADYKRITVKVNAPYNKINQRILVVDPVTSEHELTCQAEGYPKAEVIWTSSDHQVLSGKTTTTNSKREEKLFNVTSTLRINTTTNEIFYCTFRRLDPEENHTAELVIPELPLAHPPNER

CD137 = target: T2, CD137 (UniProt Q07011 24-186, limits assumed); assay: FCM or ELISA (graded summary table)
T2 construct: also called 4-1BB

B7H3 = target: T3, B7H3 (UniProt Q5ZPR3 29-466, limits assumed); assay: FCM or ELISA (graded summary table)
T3 sequence (looked up): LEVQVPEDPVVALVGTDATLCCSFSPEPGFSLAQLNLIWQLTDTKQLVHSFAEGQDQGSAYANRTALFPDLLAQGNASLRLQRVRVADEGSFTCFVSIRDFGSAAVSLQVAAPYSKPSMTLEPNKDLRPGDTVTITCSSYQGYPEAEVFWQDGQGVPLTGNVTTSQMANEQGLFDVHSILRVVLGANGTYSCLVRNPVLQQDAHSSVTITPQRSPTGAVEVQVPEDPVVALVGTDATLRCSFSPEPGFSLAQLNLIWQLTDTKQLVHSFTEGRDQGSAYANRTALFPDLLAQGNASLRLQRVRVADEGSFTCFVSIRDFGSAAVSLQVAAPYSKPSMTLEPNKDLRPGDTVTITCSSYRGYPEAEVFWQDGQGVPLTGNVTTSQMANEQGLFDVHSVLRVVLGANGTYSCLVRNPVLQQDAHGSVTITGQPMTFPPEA

PD-L1 (binding assay) = PD-L1 (binding assay) (UniProt Q9NZQ7 19-238, limits assumed); assay: FCM or ELISA, graded
PD-L1 (binding assay), sequence (Q9NZQ7 19-238 limits assumed): as the sequence (Q9NZQ7 19-238 limits assumed) above

CD40 = CD40 (UniProt P25942 21-193, limits assumed); assay: FCM or ELISA, graded
CD40, sequence (P25942 21-193 limits assumed): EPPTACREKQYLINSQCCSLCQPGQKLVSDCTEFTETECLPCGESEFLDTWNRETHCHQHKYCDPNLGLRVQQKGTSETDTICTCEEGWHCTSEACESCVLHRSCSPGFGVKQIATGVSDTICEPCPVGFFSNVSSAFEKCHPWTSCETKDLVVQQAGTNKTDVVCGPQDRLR

Row | Binder | binding result (PD-L1) | binding result (CD137) | binding result (B7H3) | binding result (PD-L1 (binding assay)) | binding result (CD40)
1 | B1 | binds |  |  |  | 
2 | B2 |  | binds | binds |  | 
3 | B3 |  | binds | binds |  | 
4 | B4 |  |  |  | binds | binds

Reference: patent US20250388669A1 (published 2025)
